Results published in article PMC3793875, “Fluorescence correlation spectroscopy, combined with bimolecular fluorescence complementation, reveals the effects of β-arrestin complexes and endocytic targeting on the membrane mobility of neuropeptide Y receptors” (Biochimica et Biophysica Acta, 2012).

T1: Y1 6A receptor-Gc (rat, UniProt P21555 1-382, S352A | T353A | T356A | S359A | T361A | S362A)
T1 construct: neuropeptide Y receptor type 1, rat, with six C tail serine/threonine residues changed to alanine; also called Y16A-Gc; receptor of the Y16A A1 and Y16A A2 cell lines; source: HEK293 cells stably co-expressing β-arrestin-Gn; live cells or membranes
T1 sequence (looked up): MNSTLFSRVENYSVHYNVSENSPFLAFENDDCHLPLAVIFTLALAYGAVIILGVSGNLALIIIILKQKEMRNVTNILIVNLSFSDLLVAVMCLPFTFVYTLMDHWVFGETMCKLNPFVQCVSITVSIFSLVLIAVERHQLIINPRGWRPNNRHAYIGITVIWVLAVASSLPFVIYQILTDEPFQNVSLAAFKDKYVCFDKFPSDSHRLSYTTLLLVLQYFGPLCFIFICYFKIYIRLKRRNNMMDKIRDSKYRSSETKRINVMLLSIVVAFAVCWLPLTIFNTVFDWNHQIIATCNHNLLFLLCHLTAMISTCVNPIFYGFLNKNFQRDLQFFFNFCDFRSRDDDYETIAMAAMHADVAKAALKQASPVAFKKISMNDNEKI

T2: Y1 receptor-Gc (rat Y1 receptor fused at the C terminus to sfGFP fragment 155-238) (rat, UniProt P21555 1-382)
T2 construct: neuropeptide Y receptor type 1, rat; cDNA transferred to the pCMV FLAG vector for transfection; also called Y1-Gc; receptor of the Y1 A1, Y1 A2 and Y1 A2Δ cell lines; source: HEK293T, stably transfected into β-arrestin-Gn clonal lines; live or fixed cells, or membranes
T2 sequence (looked up): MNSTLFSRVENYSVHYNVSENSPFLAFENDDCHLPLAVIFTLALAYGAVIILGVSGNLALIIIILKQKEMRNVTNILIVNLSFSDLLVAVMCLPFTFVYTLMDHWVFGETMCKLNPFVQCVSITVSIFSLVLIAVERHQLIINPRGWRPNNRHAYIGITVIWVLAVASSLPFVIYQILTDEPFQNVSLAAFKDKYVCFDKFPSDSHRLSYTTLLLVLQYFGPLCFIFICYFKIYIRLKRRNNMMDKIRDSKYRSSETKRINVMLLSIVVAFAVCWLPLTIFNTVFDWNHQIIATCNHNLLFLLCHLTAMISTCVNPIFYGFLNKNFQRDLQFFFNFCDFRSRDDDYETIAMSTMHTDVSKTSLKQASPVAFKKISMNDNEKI

T3: Y1 receptor-sfGFP (rat NPY Y1 receptor, N-terminal FLAG, C-terminal superfolder GFP) (rat, UniProt P21555 1-382)
T3 construct: neuropeptide Y receptor type 1, rat; sfGFP here is enhanced GFP with S30R, Y39N, M153T and V163A (wild type GFP numbering), lacking the start Met; linker LRPLE between receptor C terminus and sfGFP; also called Y1sfGFP; Y1-sfGFP; source: membranes or live cells; not shown: sfGFP via linker LRPLE, C-terminal, kept
T3 sequence (looked up): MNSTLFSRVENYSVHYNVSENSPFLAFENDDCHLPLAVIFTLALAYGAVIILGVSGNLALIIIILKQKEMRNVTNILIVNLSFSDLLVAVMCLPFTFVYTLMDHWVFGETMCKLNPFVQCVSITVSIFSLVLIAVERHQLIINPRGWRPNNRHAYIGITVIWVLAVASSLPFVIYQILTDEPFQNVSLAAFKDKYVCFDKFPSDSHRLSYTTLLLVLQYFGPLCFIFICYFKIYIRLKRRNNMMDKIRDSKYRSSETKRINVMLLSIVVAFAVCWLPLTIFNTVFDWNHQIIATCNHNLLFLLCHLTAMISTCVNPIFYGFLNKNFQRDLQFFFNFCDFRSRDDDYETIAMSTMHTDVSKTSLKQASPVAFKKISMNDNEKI

T4: Y1 6A receptor-sfGFP (rat, UniProt P21555 1-382, S352A | T353A | T356A | S359A | T361A | S362A)
T4 construct: neuropeptide Y receptor type 1, rat, with six C tail serine/threonine residues changed to alanine; also called Y16AsfGFP; source: membranes or live cells; not shown: sfGFP via linker LRPLE, C-terminal, kept
T4 sequence (looked up): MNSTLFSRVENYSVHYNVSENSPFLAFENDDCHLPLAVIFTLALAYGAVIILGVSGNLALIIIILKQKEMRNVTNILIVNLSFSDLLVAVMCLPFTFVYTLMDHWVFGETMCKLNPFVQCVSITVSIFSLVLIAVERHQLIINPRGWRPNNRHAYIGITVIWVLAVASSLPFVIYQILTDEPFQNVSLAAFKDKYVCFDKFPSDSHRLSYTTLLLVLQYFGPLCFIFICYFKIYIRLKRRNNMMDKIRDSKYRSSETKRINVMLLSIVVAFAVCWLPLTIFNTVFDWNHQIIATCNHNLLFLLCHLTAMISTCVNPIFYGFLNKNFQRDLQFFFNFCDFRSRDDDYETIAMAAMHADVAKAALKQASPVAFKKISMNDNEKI

B1: peptide YY (PYY), unlabelled (peptide)
peptide: not shown
notes: neither species nor supplier is stated; surmised
B2: β-arrestin1-Gn (human β-arrestin1 fused at the C terminus to sfGFP fragment 2-172) (natural protein, UniProt P49407 1-418, looked up)
chain: MGDKGTRVFKKASPNGKLTVYLGKRDFVDHIDLVDPVDGVVLVDPEYLKERRVYVTLTCAFRYGREDLDVLGLTFRKDLFVANVQSFPPAPEDKKPLTRLQERLIKKLGEHAYPFTFEIPPNLPCSVTLQPGPEDTGKACGVDYEVKAFCAENLEEKIHKRNSVRLVIRKVQYAPERPGPQPTAETTRQFLMSDKPLHLEASLDKEIYYHGEPISVNVHVTNNTNKTVKKIKISVRQYADICLFNTAQYKCPVAMEEADDTVAPSSTFCKVYTLTPFLANNREKRGLALDGKLKHEDTNLASSTLLREGANREILGIIVSYKVKVKLVVSRGGLLGDLASSDVAVELPFTLMHPKPKEEPPHREVPENETPVDTNLIELDTNDDDIVFEDFARQRLKGMKDDKEEEEDGTGSPQLNNR
notes: β-arrestin1, human, full length with the stop codon removed; The keyword list gives Gn as sfGFP 2-173, the methods as 2-172; also called A1; not shown: Gn (sfGFP fragment 2-172) via linker QRPLE, C-terminal, kept

How the values were obtained:
Y1 6A receptor-Gc [1] = biological target: T1, Y1 6A receptor-Gc; experiment: radioligand binding; as a1 but on membranes of HEK293T BiFC cell lines co-expressing β-arrestin2-Gn (Y1 A2, Y16A A2); 16 pM [125I]PYY; details: one partner purified
[2] = biological target: T2, Y1 receptor-Gc (rat Y1 receptor fused …); experiment: as above; details: one partner purified
[3] = biological target: T2, Y1 receptor-Gc (rat Y1 receptor fused …); experiment: radioligand binding; as a1 but on membranes of the HEK293T BiFC cell line co-expressing β-arrestin2 ΔLIEFD-Gn (Y1 A2Δ); 16 pM [125I]PYY; details: one partner purified
Y1 6A receptor-Gc [4] = biological target: T1, Y1 6A receptor-Gc; experiment: radioligand binding; as a1 but on membranes of HEK293T BiFC cell lines co-expressing β-arrestin1-Gn (Y1 A1, Y16A A1); 16 pM [125I]PYY; details: one partner purified
[5] = biological target: T2, Y1 receptor-Gc (rat Y1 receptor fused …); experiment: as above; details: one partner purified
[6] = biological target: T3, Y1 receptor-sfGFP (rat NPY Y1 receptor, …); experiment: radioligand binding; competition with [125I]PYY (16 pM for Y1, 10 pM for Y2 receptors) on membranes of tetracycline-induced 293TR Y receptor-sfGFP cell lines; 90 min at 21 °C; 25 mM HEPES, 2.5 mM CaCl2, 1.0 mM MgCl2, 0.1% BSA, 0.1 mg/ml bacitracin, pH 7.4; IC50 converted to pKi by the Cheng-Prusoff equation; details: one partner purified
Y1 6A receptor-sfGFP = biological target: T4, Y1 6A receptor-sfGFP; experiment: as above; details: one partner purified
[7] = biological target: T2, Y1 receptor-Gc (rat Y1 receptor fused …); experiment: split reporter (BiFC, NanoBiT); sfGFP BiFC in stable HEK293 cells in 96 well plates, NPY 0.1 nM-3 μM for 60 min at 37 °C, fixed, confocal platereader images quantified by granularity analysis (average granule intensity/cell); details: partners not purified

Binder | pKi (Y1 6A receptor-Gc [1]) | pKi [2] | pKi [3] | pKi (Y1 6A receptor-Gc [4]) | pKi [5] | pKi [6] | pKi (Y1 6A receptor-sfGFP) | pEC50 of NPY in stimulating the BiFC response (β-arrestin recruitment) [7]
B1 | 9.48 | 9.54 | 9.44 | 9.3 | 9.45 | 9.5 | 9.22 | –
B2 | – | – | – | – | – | – | – | 8.3
